The data set in a line: soluble on expression in E. coli; label from the status in PepcDB or PDB records.
In the case of “MSLKNIVFCGLSSRAFSMFIKPLMERFSTHYEITGLLDADPKRFAVCKKKFPELAHVPEFSEDAFDEMMRVSKPDIVIVAGRDDTHVAYIVKSLQWNTDVITEKPMVTTVQDANRVLEAEAKSEGKVTVAFNYRYSPFHRKIKEMILDGKIGRVTSVDLNWYIDTYHGASYFKRWNRSRQFSGGLSVHKSTHHFDLVNWWLGQNPEEVFAYGALNYYGPDSEWNPLPEEDGRFCGTCRVKEKCHYYSRWHPRSSKASIKDDHLEAGDQSSLYTAYRPDACIFDEEIDIEDTYVAAVKYDGGALLSYSIIFSAPYEGYRLTINGTKGRIESNEFHEPSRIPFAFPEQTIEYYPLFESKQTIQVVKNEGGHGGGDPLLLEDLFLGKDPLRRYDILAGAEAGAYSIAVGEGMWRSVAEKKPIGMKELFQMQNEGHHHHHH”, the “soluble on expression in E. coli” value was “soluble”. The same measure for “MKNTELEQLINDKLNSAAISDYAPNGLQVEGKETVQKIVTGVTASQALLDEAVRLQADAVIVHHGYFWKGESPVIRGMKRRRLKTLLANDINLYGWHLPLDAHPELGNNAQLAALLGITVKGEIEPLVPWGELSMPVPGLELASWIEARLGRKPLWCGDTGPENVQRVAWCTGGGQSFIDSAARFGVDAFITGEVSEQTIHSAREQGLHFYAAGHHATERGGIRALSEWLNENTALDVTFIDIPNPALEHHHHHH”: “soluble”; for “MSYPATRAEQVVDTLHGVQVADPYRWLEDEKAPEVQTWMTAQNAHAREALAKFPGREALAARFKELFYTDSVSTPSRRNGRFFYVRTHKDKEKAILYWRQGESGQEKVLLDPNGWSKDGTVSLGTWAVSWDGKKVAFAQKPNAADEAVLHVIDVDSGEWSKVDVIEGGKYATPKWTPDSKGFYYEWLPTDPSIKVDERPGYTTIRYHTLGTEPSKDTVVHERTGDPTTFLQSDLSRDGKYLFVYILRGWSENDVYWKRPGEKDFRLLVKGVGAKYEVHAWKDRFYVLTDEGAPRQRVFEVDPAKPARASWKEIVPEDSSASLLSVSIVGGHLSLEYLKDATSEVRVATLKGKPVRTVQLPGVGAASNLMGLEDLDDAYYVFTSFTTPRQIYKTSVSTGKSELWAKVDVPMNPEQYQVEQVFYASKDGTKVPMFVVHRKDLKRDGNAPTLLYGYGGFNVNMEANFRSSILPWLDAGGVYAVANLRGGGEYGKAWHDAGRLDKKQNVFDDFHAAAEYLVQQKYTQPKRLAIYGGSNGGLLVGAAMTQRPELYGAVVCAVPLLDMVRYHLFGSGRTWIPEYGTAEKPEDFKTLHAYSPYHHVRPDVRYPALLMMAADHDDRVDPMHARKFVAAVQNSPGNPATALLRIEANAGHGGADQVAKAIESSVDLYSFLFQVLDVQGAQGGVAAQGRHHHHHH”: “soluble”; for “MRTFCILKDFKIFIIFFLQNPCGGEGLNILERIAKEVQEETKVRLHARNVERVLQALLKTGDFWKIVDYSDLPVPAASGIIKKFLDEGIVFIDENENILFTQKGLDLVKELGIEPFEEHKCRACEGRGIPFYDDKELYRTFVEIAKDRPKPVQQYDQGSVTPETTVSRVLFLDSRGDLRGKEIIVMGAEDDLTGLAIALTRKAKRVLIIDIDERLIDFDNRIIKELGIDNAEAMVWDLRNPYTEDFLGKFDVFITDPPETFAAFRAFIGRGIATLKDAGCAGYFGLTLRDSSIFRWKEFQEILINEYGVVITDIIQDFNDYMNWEYHPETRAAQIAPVKKNPTDIWYRSAWYRIETLPGFKRWNEPISDEVFYLDEEGSTT”: “not soluble”. The value for “SSFLGGLFGPACEIDVILNDAESRKTAELKTEEGKLEKHYLFYDGESVSGKVNINVKQTSKRLEHQGIRIEFVGQIELFSDKSNTHEFVNLVKELALPGELTQNRSYDFEFMQVEKPYESYVGANVRLRYFLKVTIVRRLSDLVKEYDLIVHQLATYPDVNNSIKMEVGIEDCLHIEFEYNKSKYHLKDVIVGKIYFLLVRIKIQHMELQLIKKEMTGIGPSTTTETETVAKYEIMEGAPVKGESIPIRLFLAGYDLTPTMRDVNKKFSVRYFLNLVLVDEEDRRYFKQQEIVLWRKAPEKMRKRNFHQRYESPEPRPSLSAEQPEM” was “soluble”; that for “GPGSMHDLPEGFEFMEHKVVNKDIHAPHENLETLRLTLTRQDEFLLREEPVKCVTVTGTNGEYGIYPGHAYKIVQLNPSPLTVEYTDGTTKKYFVSGGFAHINNEGSCDVNTVECTLLDDLDLAIAEKELAAQQAALGSAKDDKAKSVVEIRISVIEAVIAALKHH” was “soluble”; that for “MWKRLCAGLSCRKFINQVTMTSVNKNRKSRDENEMAKYNEKELADTSKFLSFVLRHKPEAIGIVLDREGWADIDKLILCAQKAGKRLTRALLDTVVATSDKKRFSYSSDGRCIRAVQGHSTSQVAISFAEKTPPQFLYHGTASRFLDEIKKQGLIAGERHYVHLSADEATARKVGARHGSPVILTVKAQEMAKRGLPFWQAENGVWLTSTVAVEFLEW” was “soluble”. The value for “MSLRMNAMKIISVNVGQPTALQVGQRTAVSGIRKHPVPGRVQVGEKGLEGDHVLNRRYHGGPDQAVYVYTREDYDHWTELLGRALEPGAFGENVLISGAESAEVRVGERFLLGAVEIEVTAPRLPCSTLGARMEDAGFVKRFKAARRPGFYARVLQSGDIGRGDPVTRTPAPDGAPTIGELFDADFAKSHDPAELRAWLTFPLGKRQRKEVEKWLAKAEGEGHHHHHH” was “soluble”; that for “MSLTIVAPMDEILERAHVVALPMRVKFRGIMVREAVLFDGPKGWGEFSPFVEYGVQEAAQWLRCGLEMAFQGPPPMIRDAVEVNATIPAVSPDQVPEILARYPGCTTVKVKVAEGDDAARVAMVREVLPDARIRVDANRGWTVDQAVAASKHLGELEYMEQPCASVAELAELRRRISVPIAADESIRRVSDPYEVARLHAADVAVVKAAPLGGPRNIVDIAKFYQQRGLSLTVASALDTGVGMNAGIAVAAAIDSNPAGLATQRLFVEDVTEPRTIVDGKMSVEMLAPDPARLAEFEVTGPRRDWWLDRVRGALECLHDFIPEGHHHHHH” was “soluble”. For the sequence “HHHHHHHHHHMPPKGWRKDAQGNYPTTSYIKEQENITIQDLLFPKSTIVNLAREVPQQSGKKLLINKDASLALQRGATVFVNHLLLFAREIAKSQDKKSCSVDDVLSALDHIGHSALKGPVRDKLDEYQAAVEQRKKEKLDSGEVDADGDIDMGEDKENVPVEKVKEHDEIEEQGDALQDVEESSEKKQKTESQDVETRVQNLEQT”, the “soluble on expression in E. coli” value was “not soluble”. The same measure for “MSLNQNPVEEGQKFPLTIRRMGINGEGIGYFKKAVVFVPGAITGEEVVVEAVKVRDRFTEAKLNKIRKKSPNRVTAPCPVYEACGGCQLQHVAYSAQLELKRDIVIQSIEKHTKIDPTKLKIRPTIGMEDPWRYRNKSQFQTRMVGSGQVETGLFGANSHQLVPIEDCIVQQPVTIKVTNFVRDLLEKYGVPIYDEKAGSGIVRTIVVRTGVKTGETQLVFITNSKKLPKKREMLAEIEAALPEVTSIMQNVNQAKSSLIFGDETFLLAGKESIEEKLMELEFDLSARAFFQLNPFQTERLYQEVEKALVLTGSETLVDAYCGVGTIGQAFAGKVKEVRGMDIIPESIEDAKRNAEKNGIENVYYEVGKAEDVLPKWVKEGFRPDAVIVDPPRSGCDQGLIKSLLDVEAKQLVYVSCNPSTLARDLALLAKKYRIRYMQPVDMFPQTAHVETVVLLQLKDKEGHHHHHH”: “soluble”; for “MSLGLVLSTNVAHIQQDPGGDDRISGINKLPVATGIDVFIPGPNYGDGSGVVGDAIGDSLHHGGAHKAIYAYSREELDFFDPTYRNGYFGENLTTSGIVLEDLLINQQVRIGTTLLEVSIPRRPCRTFAHWLDIKGWLKTFTQRGLPGSYFRVIEEGHINPGDPIEVLQAPDHDITMSMAFRAKMGNKDLARRVVAANCLPARYHEELLKLIEGHHHHHH”: “not soluble”. The value for “MGSDKIHHHHHHMSRALAKPEIITELSFEEIRAAVLTHLKELLPEYTFLESDPAVKVIEAFSYRELLLRQRINEAARNNILDFATGESLDALGNWHGIARIEGESDERYRERVQLHARGGNGSGTEPYYKLIALTADSRVKDAIIYRKGKDPTIYVAIFGNNEEGTASEDLLQTVSQALHRKNIIMTNDTIIVHAAVKKVLDLEADVWLLPEASLKILTTMEANLRTAWKQEQAIGRELSLSWWVSKLMIPGVQKVIAIAPTKDSVVCDEEILSIGKITLNFKGRAR” was “not soluble”.

In the case of “MVSSLIRLRGGGLAEWNPEERPSIPAEIKRRVLVEAGHRCAIPTCRHIEVDIHHIVPWRTCQAHEYENLIALCPNCHRRADREEIDRKSLKLYKLNLRFVHEKYSQIEMDMLFDLARAPDGVGAPWTPFMLIFFKRVIDSGFVNVYELPGGIFVNGIKSSPSYLTITELGRNFISELGDRDLLALEHHHHHH”, the “soluble on expression in E. coli” value is given as “not soluble”. As for “MSSTKIDTTKPLSILLLGVDTGADGRIDKGNSDTIMVVTINPQTKKTLITSIPRDSLAEMVGDQDTNVQKLNAAYNIGGSKMAKASVSKLFNVPIDYYATINMGGLKQIVDAVGGVTITSPLNVSFDHITVTKGKHHLNGKQALSYTRMRYQDPRGDYGRQLRQQQVMRAVLAKLAETKTYSRYNQLLTSLKGNLQTDLSFNDLVGLATHDRANMKHIQSTQVIGSPAWINTSSYQILSTKTLQQTSDRLRTQLGLSTETLTNMETKLNAKNTVYDGKTNLNYDTQGLDKITYSDNTKLEHHHHHH”, the “soluble on expression in E. coli” value is recorded as “soluble”. The value for “MGSDKIHHHHHHMEIAVLGGGNGSTAAAVDLTAQGHNIRFWRRNASAQAELKARGNVITLKDFEGARPIRITMVTDDIGEAIRGAELIVCPTPATAQSDIAAAMAPHLADGQVVFLPPGSFGSWIMADIVRKAGNHADVSWAETGTLPYLTRLHGADTVAITTRATRLPTGVYPLRNAEHAHSVLARAYPAVEPAGDALSGALMNAGPIIHPPLITMNAGPIEHFDHWDIHNEGTQPAIRRVTTRLDAERMAVREALGYGAPHFPLADHYETSDWMYGNLAHDKLVDSGDWREHLVLTEHRYMREDVAVGLALLVSVADWAGVPAPTATGLLALGSAICDDDFRQSGRTLENLGLADMDRAALQTMLRDGA” was “not soluble”; that for “MSLNVFDKSGQSSGYKLSSTIGKNNTDVNKNDNNSAIYSESAVIVFGYPEYLSNQVITHFSHFGNILEDFEILRSSTGINNNTFRLHANLNALQEGSMSTKLPIFTGEGWVKITYDSPTSALRALKENGTVFTGHLIGCIPYSKSAVEQLALISVDKSDDIGSIDLGQINKSVNEDSRNKGSNGKVYPSLGSVDHIEPINGRQKEANMKSFGTPIINNNQQYLDHSIMAHPRHKLDIQDGKSLFVHNSSHHKTQFLDNIEKKIKEKEANKNESGSWSGRLTNWVFGWDNEGHHHHHH” was “soluble”. Turning to “MGSDKIHHHHHHMNTHNILIIGQGDIGLPVTNKLAQNGVNVTGLARRKRQNYALSDHAKFMQADALTLSPEQLQDFTHIAIIVTPDEYSTSGYHNSYLAINQHLALLADKLSNLQRVVFISSTGVYGQDNGEWIDEDTVPMLPEREASQVILQAEQALQQVFHDRAIIIRPSGIYGRARLMRVRKAKEPQKQPIAAGAWTNRIMDSDLVNIIAKVLTIKAPKPIYIATDYLPVTSFALTTWLSEQLDEALPVLDDKNSVMTGKRLHSNIPLSWLMYPDWQIGYQDILRHQD”, the “soluble on expression in E. coli” value is “not soluble”. The value for “MVNNSKTILITGCSHGGIGYATAVHLKNLGHRVFASARQQKDVEALSQEGFETYLIDVTNYEYIDNALADILNKTGGSLDVIFNNAGYGQAGALEDIDTKFLKQQFETNVFGLHNLTYKALKIMRKQGYGKIIQHSSVLGLVAMKYRGAYNASKYAIEGLTDTMRLELRDSNIFITSLNTGPITSKFRENSIKTITNVNYDSSVHKQQYEKILARQHKKVPFNEPAISVAKVVEKIINCDKPKPRYYITKATWIMASLKRILPTNILDNFLNRY” was “not soluble”.

The values above are taken from the DeepSol protein solubility set.
